Experimental data: article PMC6692331

Tests used:
[1] = target: carboxymethylated humanized ferritin (S-CMHumFt) (Archaeoglobus fulgidus | human); assay: SEC; HP-SEC with UV (220, 410 nm) and fluorimetric detection; ferritin dissociated without MgCl2, mixed with a 20 fold molar excess of Cyt C, re-assembled with 50 mM MgCl2; mobile phase 20 mM HEPES pH 7.4, 50 mM MgCl2; Cyt C signal at the retention time of the ferritin 24-mer (encapsulation in the cavity)
[2] = target: humanized Archaeoglobus ferritin (HumFt) (Archaeoglobus fulgidus | human); assay: as above

cytochrome C from equine heart (from UniProt P00004 1-105) (natural protein)
stoichiometry N [1]: 1.4 Cyt C:HumFt | stoichiometry N [2]: 0.43 Cyt C:HumFt
